Reference: the nanobody polyreactivity screen of Harvey et al. (2022)

Assay: yeast display, Sf9 membrane polyspecificity reagent, FACS + sequencing; frameworks hold sequencing errors
Summary of the method: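 Galactose induction of a Saccharomyces cerevisiae BJ5465 synthetic nanobody display library ran 36–48 hours. The cells were then stained for 1 hour at 4 °C with 10% biotinylated, detergent-solubilized Sf9 membrane reagent, pulled down on streptavidin microbeads and FACS-sorted into low and high (top ~1%) gates on expression and reagent-binding fluorescence. Labels for polyreactivity follow the gate of origin.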
In the case of “QVQLVESGGGLVQAGGSLRLSCAASGRTFQYNTMGWYRQAPGKERELVAAISRSGGTTYYADSVKGRFTISRDNAKNTVYLQMNSLKPEDTAVYYCAAANSYTFRYGSWGQGTEVTVSS”, the “polyreactivity (PSR sort gate)” value is reported as “high polyreactivity”.
With “QFQLVESGGGLVQAGGSLRLSCAASALIFTPNAMGSYIPAPGKESELVAAISSSGRTSYADSVKGRFTISRDNAKNAVYLQMNSLKPEDTAVYYSNATWRWTRRGYVYWGQGTQVTLSS” the “polyreactivity (PSR sort gate)” value was “low polyreactivity”.
In the case of “QVQLVESGGGLVQAGGSLRLSCAASGSTFGGNGMGWYRQAPGKKGSWVAAISWSGGSTYYADSVKGRFTISRDNAKNTVYLQMNSLKPEDTAVYYCAARTVYRGRAYDYWGQGTQVTVSS”, the “polyreactivity (PSR sort gate)” value is reported as “high polyreactivity”.
With “QVQLVESGGGLVQAGGSLRLSCAASGSILEGNAMGWYRQAPGKERELVASISGDGSTNYADSVKGRFTISRDNAKNTVYLQMNSLKPEDTAVYYCAARYGRIHWKANWPEYGYWGQGTQVTVSS” the “polyreactivity (PSR sort gate)” value was “low polyreactivity”.
In the case of “QVQLVESGGGLVQAGGSLRLSCAASGLIFTTNAMGWYRQAPGKEREFVAAISPSGGSTYYADSVKGRFTISRDNAKNTVYLQMNSLKPEDTAVYYCAAAGWSARGYNYWGQGTQVTVSS”, the “polyreactivity (PSR sort gate)” value is reported as “high polyreactivity”.
In the case of “QVQLVESGGGLVQAGGSLRLSCAASGSTFGFNAMGWYRQAPGKERELVAAITKSGGSTYYADSVKGRFTISRDNAKNTVYLQMNSLKPEDTAVYYCAARRSGRKYDYWGQGTQVTVSS”, the “polyreactivity (PSR sort gate)” value is reported as “high polyreactivity”.
For “QVQLVESGGGLVQAGGSLRLSCAASGFITPWYAMGWYRQAAGKEREWVAAIDWSGGSTYYADSVKGRFTISRDNAKNSVYLQMNSVKPEDTAVYYCAARYYTASVRAGRVRMYYWGQGTQVTVSS”, the “polyreactivity (PSR sort gate)” value was “high polyreactivity”.
In the case of “QVQLVESGGGLVQAGGSLRLSCAASGRIFVPYLMGWYRQAPGKERELVASISDSDTSTYYADSVKGRFTISRDNAKNTVYLQMNSLKPEDTAVYYCNVDYWGQGTQVTVSS”, the “polyreactivity (PSR sort gate)” value is reported as “low polyreactivity”.
For “QVQLVESGVGLVQAGGSLRLSCAASGRIISRYAMGWYRQAPGKERELDAAISRRGGSTYYADSVKGRFTISRDNAKNTVYLQMNSLKPEDTAVYYCNADTGNRGYDYWGQGTQVTVSS”, the “polyreactivity (PSR sort gate)” value was “high polyreactivity”.
With “QVQLVESGGGLVQAGGSLRLSCAASGFTFPFYTMGWYRQAPGKERELVAAITRSGASTFYADSVKGRFTISRDNAKNTVYLQMNSLKPEDTAVYYCAARRGYAPYEYWGQGTQVNVSS” the “polyreactivity (PSR sort gate)” value was “high polyreactivity”.
In the case of “QVQLVESGGGLVQAGGSLRLSCAASGFTFGPYDLGWYRQAPGKERELVAAITDSSGSTHYADSVKGRFTISRDNAKNTVYLQMNSLKPEDTAVYYCAADDSSRTTYDYWGQGTQVTVSS”, the “polyreactivity (PSR sort gate)” value is reported as “low polyreactivity”.
With “QDQLEESGGGLRQAGGSLRLTCAASGIIFPYYTKGLYRQATGKEKLVAAISSRGGSTYYADSVKGRFTISRDNAKNTVYLQMTSLKPEDTAVYYCAAKNVYHDDFWGQGTQVTVSS” the “polyreactivity (PSR sort gate)” value was “high polyreactivity”.
With “QVQLVESGGGLVHAGGSLRLSCAASGSIITYYAMGWSRQAPGKERELVAVISASGGRTYYADSVKVRFTISLDNAMYSVYLQMNSLKPEDTAVYYCAAYRSIYSFKFGYWGQGSQVTVSS” the “polyreactivity (PSR sort gate)” value was “high polyreactivity”.
For “QVQLVESGGGLVQAGGSLRLSCAASGITFGSYAMGWYRQAPGKEREFVAAISLSGGNTYYADSVKGRFTISRDNAKNTVYLQMNSLKPEDTAVYYCAADYEYSGYGYWGQGTQVTVSS”, the “polyreactivity (PSR sort gate)” value was “high polyreactivity”.
In the case of “QVQLVESGGGLVQAGGSLRLSCAASGSILFLNAMGWYSQAPGKERELVASITDSGGGTYYADSVKGRFTISRDNAKNTVYLQMNSLKPEDTAVYYCNARSRRPDDYWGQGTQVTVSS”, the “polyreactivity (PSR sort gate)” value is reported as “low polyreactivity”.
For “QVQLVESGGGLVQAGGSLRLSCAASGRIFRYYAMGWYRQAPGKERELVAAISGGRTYYADSVKGRFTISRDNAKNTVYLQMNSLKPEDTAVYYCNAGGIVWTGYWYDYDYWGQGTQVTVSS”, the “polyreactivity (PSR sort gate)” value was “high polyreactivity”.
In the case of “QVQLVESGGGLVQAGGSLRLSCAASGRTFEGNAMGWYRQAPGKERELVAAINSSGGSTYYADSVKGRFTISRDNAKNTVYLQMNSLKPEDTAVYYCNAVAGPQGVKLYDYWGQGTQVTVSS”, the “polyreactivity (PSR sort gate)” value is reported as “low polyreactivity”.
For “QVQLVESGGGLVQAGGSLRLSCAASGSIFIGYAMGWYRQAPGKERELVASIRNGGSTNYADSVKGRFTITRDNAKNTVYLQMNSLKPEDTAVYYCAGRYPVFLVSFGFDYWGQGTQVTVSS”, the “polyreactivity (PSR sort gate)” value was “low polyreactivity”.
For “QVQLVESGGGLVQAGGSLRLSCDASGLTFSFYVMGWYRQAPVKERELVAAISRSGTSTYYSDSVKGRFTISRDNAKNTVYLQMNSLKPEDTAVYYCADRGRWLYYLYELDYWGQGTQVTESS”, the “polyreactivity (PSR sort gate)” value was “high polyreactivity”.
With “QVQLVESGGGLVQAGGSLRLRCAASGTFYLYAMGWYRQAPWKQRELVAAISGSGSTNYADSVKGRFTISRDNAKNTVYLQMNSLKPEDTAVYYCAAYQRYDSLTGARYEYDYWGQGTQVTVSS” the “polyreactivity (PSR sort gate)” value was “low polyreactivity”.
In the case of “QVQLVESGGGLVQAGGSLRLSCAASGRIFVYYTMGWYRQAPGKERELVAAITGSGGSTYYADSVKGRFTISRDNAKNTVYLQMNSLKPEDTAVYYCAARYASTGGGYKYYYWGQGTQVTVSS”, the “polyreactivity (PSR sort gate)” value is reported as “high polyreactivity”.
In the case of “QVQLVESGGGLVQAGGSLRLSCAASGRIFDYNAMGWYRQAPGKERELVAAISSRGGRTYYADSVKGRFTISRDNAKNTVYLQMNSLKPEDTAVYYCNTGWATDADDYWGQGTQVTVSS”, the “polyreactivity (PSR sort gate)” value is reported as “high polyreactivity”.
In the case of “QVQLVESGGGLVQAGGSLRLSCAASGRIFSVYTMGWYRQAPGKEREFVASITGSAGSTYYADSVKGRFTISRDNAKNTVYLQMNSLKPEDTAVYYCAKRITAWYTYYGYWGQGTQVTVSS”, the “polyreactivity (PSR sort gate)” value is reported as “low polyreactivity”.
With “QVQLVESGGGLGHAGGSLRLSCAASGSIFFWYAMGWYRQAPGKERELVAAITQRTGSTYYADSVKGRFTISRDNAKNTVYLQMNSLKPEDTAVYYCAGKRWRRSFTGNYWGLGTQVTVSS” the “polyreactivity (PSR sort gate)” value was “high polyreactivity”.
With “QVQHVESGGGLDQAGGSLRLSCAASGITFEGYAMGWYRQAPGKERELVAAIRSSGTSTYYADSVKGRFTISRDNAKNTFYLQMISLKPEETAVYYCNRARSSYSYDYWGQGTQVTVSS” the “polyreactivity (PSR sort gate)” value was “low polyreactivity”.
In the case of “QVQLVESGGGLVQAGGSLRLSCAASGSIFDDYAMGWYRQSPGQERELVAAISWSGGSTYYADSVKGRFTISRDNAKNTDYLQMNSLKPDDTAVYYCAGYDYDYLYGEYYWGQGTQVTVSS”, the “polyreactivity (PSR sort gate)” value is reported as “low polyreactivity”.
For “QVQLVESGGGLVQAGGSLRLSCAASGITFYRYVMGWYRQAPGKERELVAAITTGDSTYYADSVKGRFTISRDNAKNTVYLQMNSLKPEDTAVYFCAAVYYTALANYDYWGQGTQVTVSS”, the “polyreactivity (PSR sort gate)” value was “low polyreactivity”.
In the case of “QVQLVESGGGLVQAGGSLRLSCAASGFTIYRYAMGWYRQAPGKERELVAAITWSGVSTYYADSVKGRFTISRDNAKNTVYLQMNSLKPEDTAVYYCAATTYSSSSSHDYWGQGTQVTVSS”, the “polyreactivity (PSR sort gate)” value is reported as “low polyreactivity”.
With “QVQLVESVVGLVQAGGSLRLSCADSGSTFRSNAMGWYRQAPGKETELVAGITSGTSTNYADSVKGRFTISRDNAKNTVYLQMNSLKPEDTAVYYCNTDRIWYGPEYDFWGQGTQVTVSS” the “polyreactivity (PSR sort gate)” value was “low polyreactivity”.
In the case of “QVQLVESGGGLVQAGGSLRLSCAASGSTFSGNAMGWDRQAPGKESELVAAINSVRTYYADSVKGRFTISRDNAKNTVYLQMNSLKQEDTAVYYCNAEGYVSLSQYGVRRHSDYWGQGTQVNVSS”, the “polyreactivity (PSR sort gate)” value is reported as “high polyreactivity”.
For “QVHLVDSRGGLVQAGGSLRLSCAASGRISVFYTMGWYRQEPGKEREMVATITTSGGFTYYADSVKGRFTNSRDNAKNTVYLLMNSLKPEDTAVYYCAAVLGYRFYEYYFWGQGTQVTVSS”, the “polyreactivity (PSR sort gate)” value was “low polyreactivity”.
With “QVQLVESGGGLVQAGGSLRLSCAASGIIFYSYAMGWYRPAPGKERELVAAISTGSSTNYADSVKGRFTISRDNAKNTVYLQMNSLKPEDTAVYYCAKSTAVKPYAYRESGFIYDYWGQGTQVTVSS” the “polyreactivity (PSR sort gate)” value was “low polyreactivity”.
For “QVQLVESGGGLVQAGGSLRLRCAASGYTFKHYTMGWYREAPGKERELVAAISRRGGRTYYADSVKGRFTISRDNAKNTVYLQMNSLKPEDTAVYYCNRVPRARKGDYWGQGTQVTVSS”, the “polyreactivity (PSR sort gate)” value was “high polyreactivity”.
For “QVQLVESGGGLVQAGGSLRLSCAASGSTFPFYAMGWYRQAPGKERELVAAITASVGNTYYADSVKGRFTISRDNAKNTVYLQMNSLKPEDTAVYYCNADEWYTYIPDFDYWGQGTQVTVSS”, the “polyreactivity (PSR sort gate)” value was “low polyreactivity”.
With “QVQLVESGGGLVHAGGSLRLSCAASGSIFGWYAMGWYRQAPGKERELVASISWSGGGTYYADSVKGRFTISRDNAKNTVYLQMKSLKPEDTAVYYCAAVYIWRYGIRGGYYWGQGTQVSVSS” the “polyreactivity (PSR sort gate)” value was “high polyreactivity”.
With “QVQLVESGGGLVQAGGSLRLSCAASGSTFGPYAMGWYRQAPGKERELVAAISSGGSTYADSVKGRFTISRDNAKNTVYLQMNSLKPEDTAVYYCAKVHGRGVYSVEYDYWVQGTQVTVSS” the “polyreactivity (PSR sort gate)” value was “low polyreactivity”.
For “QVQLVESGGGLVQAGGSLRLSCAASGSIFTLYAMGWYRQAPGKERELVATINWSGGSTSYADSVKGRFTISRDNAKNTVYLQMNSLKPEDTAVYYCAADYYFWHGTGYDYWGQGTQVTVSS”, the “polyreactivity (PSR sort gate)” value was “low polyreactivity”.
In the case of “QVQLVESGGGLVQAGGSLRLSCAASGRNFAWYAMGWYRQAPGKERELVAAISWSSDTTYYADSVKGRFTISRDNAKNTVYLQMNSLKPEDTAVYYCAAVFQGYTRKYYYWGQGTQVTVSS”, the “polyreactivity (PSR sort gate)” value is reported as “high polyreactivity”.
In the case of “QVQLVESGGGLVQAGGILRLSCAASGSTFAQNAMGWYRQAPGKEREFVAAITGTVGSTYYADSVKGRFTISRDNAKNTVYLQMNSLKPEDTAVFYCNTRGFNGRVYPYDYWGQGTQVTVSS”, the “polyreactivity (PSR sort gate)” value is reported as “low polyreactivity”.
In the case of “QVQLVESGGGLVQAGGSLRLSCAASGSIFNAYVMGWYRQAPGKERELVAAISRSGGRTYYADSVKGRFTISRDNATNTVYLQMNCLKPEDTAVYYCAAGYRYNYWGQGSQVTVSS”, the “polyreactivity (PSR sort gate)” value is reported as “high polyreactivity”.
In the case of “QVQLVESGGGLVQAGGSLRLSCAASGKIFSYNAMGWYRQAPGKERELVAAISRSGGSTYYADSVKGRFTISRDNAKNTVYLQMNSLKPEDTAVYYCAADWRGRKYDYWGQGTQVTVSS”, the “polyreactivity (PSR sort gate)” value is reported as “high polyreactivity”.
In the case of “QVQLVESGGGLVQAGGSLRLSCAASGFIFRYNPMGWYRQAPGKERELVAVITSGGRTYYADSVKGRFTISRDNAKNTVYLQMNSLKPEDTAVYYCNGDSRHRRNYDYWGQGSQVTVSS”, the “polyreactivity (PSR sort gate)” value is reported as “high polyreactivity”.
In the case of “QVQLVESGGGLVQAGGSLRLSCAASGRTFARNAMGWYRPAPGKERELVAAITGRGGSTHYADSVKGRFTISRDNAKNTVYLKMNSLKPEDTAVYYCAADYRYNRGSTSNKDYDYWGQGTQVTVSS”, the “polyreactivity (PSR sort gate)” value is reported as “low polyreactivity”.
